Test results taken from article PMC10856354 (International Journal of Molecular Sciences, 2024).
Several values for one entry are separate records, joined by “and”; a condition that tells them apart may be missing. Equal entries are not always repeated. Where a SMILES comes first, the peptide text is derived from it. Bridges are numbered along the chain shown (N, C = ends). [ ]: non-standard residue; d: D form. The star is where a group is joined. DOTA = O=C(O)CN1CCN(CC(=O)O)CCN(CC(=O)*)CCN(CC(=O)O)CC1

Legend:
[1] = mice, blood collected 5 min pi, radio-HPLC
Method: At 5 min pi blood (~1mL) was collected from the heart of mice in a prechilled insulin syringe and swiftly placed in an ice-cold polypropylene tube containing EDTA on ice. Blood samples were centrifuged at 2000× g at 4 °C for 10 min. […] The mixture was centrifuged for 10 min at 15,000× g at 4 °C. […] An RP18 Symmetry Shield cartridge column (5 μm, 3.9 mm × 20 mm, Waters, Vienna, Austria) was eluted at a 1 mL/min flow rate with the following gradient: 100%A/0%B to 60%A/40%B in 40 min, whereby A = 0.1% aqueous TFA and B = MeCN (system 3).

[2] = in vivo; settings: male, SCID, mouse, iv, total radioactivity
Method: (§1) For the second biodistribution experiments, male SCID mice of 7 weeks of age (15–20 g) on arrival day (NCSR ‘‘Demokritos’’ Animal House, Athens, Greece) were subcutaneously injected in their flanks with a suspension of HEK293-hSST3R cells (150 μL inocula of ~3 × 10^7 cells in PBS). The animals were kept under aseptic conditions for 3–4 weeks until well-palpable tumors were grown at the inoculation site. […] Mice were sacrificed at 4 h pi, and biodistribution analyses were conducted, as described above.

[3] = tested on: HEK293-hSST3R tumor-bearing SCID mice; assay: in vivo; settings: HEK293-hSST3R mice, 4 h pi, block: co-injection of 80 nmol KE108; mean ± sd, n = 4
Method: as §1

[4] = in vivo; settings: male, SCID, mouse, iv, total radioactivity; remark: listed apart in the source
Method: (§2) For biodistribution experiments, male SCID mice of 7 weeks of age (15–20 g) on arrival day (NCSR ‘‘Demokritos’’ Animal House, Athens, Greece) were subcutaneously injected in their flanks with a suspension of AR4-2J cells (150 μL inocula of ~1 × 10^7 cells in PBS). The animals were kept under aseptic conditions for 12 days until well-palpable tumors were grown at the inoculation site. […] In an additional group, animals were co-injected with excess TATE (100 nmol) together with the radioligand (blocked animals) and were sacrificed at 4 h pi. Blood was immediately collected, and the organs of interest were excised and weighed. Sample radioactivity was measured in the γ-counter using proper standards of the injected activity. Data were calculated as %IA/g with the aid of standard solutions and represent mean values ± sd. For comparisons, a Two-way ANOVA with Tukey’s post hoc analysis was applied (PRISM^TM GraphPad—6 Software, San Diego, CA, USA). p values < 0.05 were considered statistically significant.

[5] = tested on: AR4-2J tumor-bearing SCID mice (rSST2R-positive); assay: in vivo; settings: AR4-2J mice, 4 h pi, block: co-injection of 100 nmol TATE; mean ± sd, n = 4
Method: as §2

[6] = target: T1, hSST2R (Homo sapiens, UniProt P30874); assay: Immunofluorescence microscopy-based internalization assay in HEK293-hSST2R cells; type: cell-based; settings: 1 µM, 30 min at 37 °C
T1 construct: expressed in transfected cells
Method: Figure 3 Agonist stimulated hSST2R-internalization in HEK293-hSST2R cells determined by immunofluorescence microscopy.
An immunofluorescence microscopy-based internalization assay for hSST2R was performed in HEK293-hSST2R cells, grown on poly-DLys (20 μg/mL) (Sigma-Aldrich, St. Louis, MO, USA) coated 35-mm four-well plates (Cellstar, Greiner Bio-One GmbH, Frickenhausen, Germany). […] HEK293-hSST2R cells treated with vehicle alone were used as a negative control. The cells were then rinsed twice with PS (100 mM phosphate buffer containing 0.15 M sucrose), fixed and permeabilized for 7 min with cold methanol (−20 °C), rinsed twice with PS, and then blocked for 60 min at room temperature with PS containing 0.1% BSA. Next, cells were incubated for 60 min at room temperature with the hSST2R-specific primary antibody R2-88 (provided by Dr. A. Schönbrunn, Houston, TX, USA) diluted 1:1000 in PS and washed 3 × 5 min with PS containing 0.1% BSA. The cells were incubated for 60 min at room temperature in the dark with the secondary antibody Alexa Fluor 488 goat anti-rabbit IgG (H+ L) (Molecular Probes, Inc., Eugene, OR, USA) diluted in PS (1:600), washed 3 × 5 min with PS containing 0.1% BSA, embedded with PS/glycerol 1:1, and covered with a glass cover slip. The cells were imaged using a Leica DM RB immunofluorescence microscope (Leica, Deerfield, IL, USA) and an Olympus DP10 camera (Olympus Corporation, Shinjuku, Tokyo, Japan).

[7] = pancreas, 10 pmol total peptide
[8] = AR4-2J tumor, 10 pmol total peptide

T1 sequence (P30874 whole entry): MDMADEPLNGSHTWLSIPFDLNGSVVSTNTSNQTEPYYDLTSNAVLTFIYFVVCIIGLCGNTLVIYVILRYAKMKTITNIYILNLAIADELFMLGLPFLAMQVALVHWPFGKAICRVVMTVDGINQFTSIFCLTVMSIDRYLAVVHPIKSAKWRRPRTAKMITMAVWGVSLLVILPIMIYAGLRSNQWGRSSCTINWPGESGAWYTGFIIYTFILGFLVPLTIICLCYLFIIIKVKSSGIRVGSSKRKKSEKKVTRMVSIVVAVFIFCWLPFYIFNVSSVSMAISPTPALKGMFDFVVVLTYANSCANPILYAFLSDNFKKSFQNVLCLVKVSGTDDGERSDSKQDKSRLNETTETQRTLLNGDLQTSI

In the case of `C[C@H](NC(=O)CN1CCN(CC(=O)O)CCN(CC(=O)O)CCN(CC(=O)O)CC1)C(=O)NCC(=O)N[C@H]1CSSC[C@@H](C(=O)O)NC(=O)[C@H](CO)NC(=O)[C@H]([C@@H](C)O)NC(=O)[C@@H]2CSSC[C@H](NC(=O)[C@H](CC(N)=O)NC(=O)[C@H](CCCCN)NC1=O)C(=O)N[C@@H](Cc1ccccc1)C(=O)N[C@H](Cc1c[nH]c3ccccc13)C(=O)N[C@@H](CCCCN)C(=O)N[C@@H]([C@@H](C)O)C(=O)N2` [[^111In]In-AT5S, metal not drawn] ({DOTA}-AGCKNCF[dW]KTCTSC-OH; disulfide 3-14, 6-11), the “% intact radioligand in peripheral blood” value [1] is reported as over 96%.

With `C[C@H](NC(=O)CN1CCN(CC(=O)O)CCN(CC(=O)O)CCN(CC(=O)O)CC1)C(=O)NCC(=O)N[C@H]1CSSC[C@@H](C(=O)O)NC(=O)[C@H](CO)NC(=O)[C@@H]2CSSC[C@H](NC(=O)[C@H](CCCCN)NC1=O)C(=O)N[C@@H](Cc1ccccc1)C(=O)N[C@@H](Cc1ccccc1)C(=O)N[C@H](Cc1c[nH]c3ccccc13)C(=O)N[C@@H](CCCCN)C(=O)N[C@@H]([C@@H](C)O)C(=O)N[C@@H](Cc1ccccc1)C(=O)N2` [[^111In]In-AT6S, metal not drawn] ({DOTA}-AGCKCFF[dW]KTFCSC-OH; disulfide 3-14, 5-12) the tissue uptake at 4 h ([2]; HEK293-hSST3R tumor, 10 pmol total peptide) was 3.7 ± 0.4 %ID/g, the tissue uptake at 4 h ([2]; blood, 10 pmol total peptide) was 0.3 ± 0.02 %ID/g and the tissue uptake at 4 h ([2]; heart, 10 pmol total peptide) was 0.5 ± 0.05 %ID/g. It also gave a tissue uptake at 4 h ([2]; heart, with KE108 80 nmol co-injected (in vivo SST3R blockade)) of 0.1 %ID/g, a tissue uptake at 4 h ([2]; kidneys, with KE108 80 nmol co-injected (in vivo SST3R blockade)) of 26.8 ± 5.4 %ID/g and a tissue uptake at 4 h ([2]; liver, 10 pmol total peptide) of 16.6 ± 1.5 %ID/g. The tissue uptake at 4 h [2, 7] was 0.5 ± 0.04 %ID/g, the tissue uptake at 4 h ([2]; stomach, 10 pmol total peptide) was 0.8 ± 0.05 %ID/g and the tissue uptake at 4 h ([2]; stomach, with KE108 80 nmol co-injected (in vivo SST3R blockade)) was 0.1 ± 0.04 %ID/g. The Tumor uptake [3] was 0.3 ± 0.05 %IA/g, the “% intact radioligand in peripheral blood” value [1] was > 98% and > 96% and the tissue uptake at 4 h [4, 8] was 1.9 ± 0.1 %ID/g. The tissue uptake at 24 h [4, 8] was 0.8 ± 0.1 %ID/g, the tissue uptake at 4 h ([4]; blood, 10 pmol total peptide) was 0.3 ± 0.01 %ID/g and the tissue uptake at 24 h ([4]; blood, 10 pmol total peptide) was 0.07 %ID/g. It also gave a tissue uptake at 24 h ([4]; femur, 10 pmol total peptide) of 0.6 ± 0.1 %ID/g, a tissue uptake at 4 h ([4]; heart, 10 pmol total peptide) of 0.5 ± 0.05 %ID/g and a tissue uptake at 24 h ([4]; heart, 10 pmol total peptide) of 0.3 ± 0.06 %ID/g. For the same molecule, the tissue uptake at 4 h ([4]; heart, with TATE 100 nmol co-injected (in vivo SST2R blockade)) was 0.7 ± 0.1 %ID/g, the tissue uptake at 24 h ([4]; intestines, 10 pmol total peptide) was 0.6 ± 0.08 %ID/g and the tissue uptake at 24 h ([4]; kidneys, 10 pmol total peptide) was 34.1 ± 3.9 %ID/g. For the same molecule, the tissue uptake at 4 h ([4]; kidneys, with TATE 100 nmol co-injected (in vivo SST2R blockade)) was 49.5 ± 10.5 %ID/g, the tissue uptake at 4 h ([4]; liver, 10 pmol total peptide) was 16.6 ± 1.5 %ID/g and the tissue uptake at 24 h ([4]; liver, 10 pmol total peptide) was 12.1 ± 2.4 %ID/g. The tissue uptake at 24 h ([4]; muscle, 10 pmol total peptide) was 0.1 ± 0.03 %ID/g, the tissue uptake at 4 h [4, 7] was 0.5 ± 0.1 %ID/g and the tissue uptake at 24 h [4, 7] was 0.4 ± 0.07 %ID/g. It also gave a tissue uptake at 24 h ([4]; spleen, 10 pmol total peptide) of 6 ± 1.1 %ID/g, a tissue uptake at 4 h ([4]; stomach, 10 pmol total peptide) of 0.8 ± 0.04 %ID/g and a tissue uptake at 24 h ([4]; stomach, 10 pmol total peptide) of 0.3 ± 0.03 %ID/g. The tissue uptake at 4 h ([4]; stomach, with TATE 100 nmol co-injected (in vivo SST2R blockade)) was 0.5 ± 0.2 %ID/g and the Tumor uptake [5] was 0.8 ± 0.05 %IA/g.

With “DOTA-Ala^1-Gly^2-c[Cys^3-Lys^4-Asn^5-Phe^6-Phe^7-Trp^8-Lys^9-Thr^10-Phe^11-Thr^12-Ser^13-Cys^14-OH] [AT1S, reference compound]” the “ligand-induced hSST2R internalization (agonism)” value [6] was “clearly able to trigger the internalization of hSST2R”.
